Here are results for six sequences from the supplement of paper PMC5998384.

The subject of series [1] is HeLa Kyoto. Kind of series: melting temperature (median over replicates), in situ; higher = more thermally stable.
Series [2] concerns HeLa Kyoto. The series is described as follows: thermal stability score vs G1/S (z-score of summed log2 fold changes over temperatures); higher = more thermally stable than in G1/S.
In series [3] the test system is HeLa Kyoto. The series is described as follows: solubility change mitosis vs G1/S (difference of NP-40 vs SDS log2 ratios) (log2 ratio difference); higher = more soluble in mitosis.
For series [4], the system named is HeLa Kyoto. The series is described as follows: solubility in G1/S (NP-40 vs SDS abundance) (log2 ratio); higher = more soluble. As to conditions: cell cycle stage: G1/S.
Setting [5] is: cell cycle stage: early G1 (4.5 h after nocodazole release).
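For melting temperature (median over replicates), in situ in this document: HeLa Kyoto cells synchronized by double thymidine or nocodazole block, proteins quantified by TMT10plex mass spectrometry, three independent biological replicates.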
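For solubility change mitosis vs G1/S (difference of NP-40 vs SDS log2 ratios) in this document: synchronized HeLa Kyoto cells (double thymidine block for G1/S, nocodazole release for mitosis), protein amounts in NP-40 versus SDS lysates quantified by mass spectrometry, three biological replicates.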
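For solubility in G1/S (NP-40 vs SDS abundance) in this document: HeLa Kyoto cells arrested at G1/S by double thymidine block, proteins quantified by TMT10plex mass spectrometry in mild NP-40 versus SDS extracts, three biological replicates.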
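For thermal stability score vs G1/S (z-score of summed log2 fold changes over temperatures) in this document: synchronized HeLa Kyoto cells, proteins quantified by TMT10plex mass spectrometry, three biological replicates, mitosis taken 0.5 h after nocodazole release, G1/S directly after double thymidine block.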

Regarding “MSSARFDSSDRSAWYMGPVSRQEAQTRLQGQRHGMFLVRDSSTCPGDYVLSVSENSRVSHYIINSLPNRRFKIGDQEFDHLPALLEFYKIHYLDTTTLIEPAPRYPSPPMGSVSAPNLPTAEDNLEYVRTLYDFPGNDAEDLPFKKGEILVIIEKPEEQWWSARNKDGRVGMIPVPYVEKLVRSSPHGKHGNRNSNSYGIPEPAHAYAQPQTTTPLPAVSGSPGAAITPLPSTQNGPVFAKAIQKRVPCAYDKTALALEVGDIVKVTRMNINGQWEGEVNGRKGLFPFTHVKIFDPQNPDENE [CRKL]”, the melting temperature in the series on HeLa Kyoto [1] (cell cycle stage: G1/S) turned out to be 53 °C; with HeLa Kyoto [1] (cell cycle stage: mitosis), 53.4 °C. For the same sequence, the thermal stability score is -0.327 in the series on HeLa Kyoto [2] (setting [5]) and -0.418 in the series with HeLa Kyoto [2] (cell cycle stage: mitosis). Further, the “solubility change mitosis (log2)” value in the series on HeLa Kyoto [3] was found to be 0.0605. Further, the “solubility in G1/S (log2)” value in the series on HeLa Kyoto [4] turned out to be 0.543.

As for “MSSEEGKLFVGGLNFNTDEQALEDHFSSFGPISEVVVVKDRETQRSRGFGFITFTNPEHASVAMRAMNGESLDGRQIRVDHAGKSARGTRGGGFGAHGRGRSYSRGGGDQGYGSGRYYDSRPGGYGYGYGRSRDYNGRNQGGYDRYSGGNYRDNYDN [RBM3]”, the melting temperature is 54.2 °C in the series with HeLa Kyoto [1] (cell cycle stage: G1/S) and 52.7 °C in the series on HeLa Kyoto [1] (cell cycle stage: mitosis). In addition, the thermal stability score is -2.01 in the series with HeLa Kyoto [2] (setting [5]) and -4.74 in the series with HeLa Kyoto [2] (cell cycle stage: mitosis). For the same sequence, in the series on HeLa Kyoto [3], the “solubility change mitosis (log2)” value worked out at 0.436. In the series on HeLa Kyoto [4], the “solubility in G1/S (log2)” value worked out at 0.11.

Take “MSSEPPPPPQPPTHQASVGLLDTPRSRERSPSPLRGNVVPSPLPTRRTRTFSATVRASQGPVYKGVCKCFCRSKGHGFITPADGGPDIFLHISDVEGEYVPVEGDEVTYKMCSIPPKNEKLQAVEVVITHLAPGTKHETWSGHVISS [CARHSP1]”: the figures for the melting temperature with HeLa Kyoto [1] (cell cycle stage: G1/S) and in the series on HeLa Kyoto [1] (cell cycle stage: mitosis) were 54.7 °C and 55.2 °C, respectively. Moreover, the thermal stability score was -0.479 in the series on HeLa Kyoto [2] (setting [5]) and -0.699 in the series on HeLa Kyoto [2] (cell cycle stage: mitosis). For the same sequence, in the series with HeLa Kyoto [3], the “solubility change mitosis (log2)” value was determined as 0.089. The “solubility in G1/S (log2)” value in the series with HeLa Kyoto [4] was 0.691.

Regarding “MSSLAVRDPAMDRSLRSVFVGNIPYEATEEQLKDIFSEVGSVVSFRLVYDRETGKPKGYGFCEYQDQETALSAMRNLNGREFSGRALRVDNAASEKNKEELKSLGPAAPIIDSPYGDPIDPEDAPESITRAVASLPPEQMFELMKQMKLCVQNSHQEARNMLLQNPQLAYALLQAQVVMRIMDPEIALKILHRKIHVTPLIPGKSQSVSVSGPGPGPGPGLCPGPNVLLNQQNPPAPQPQHLARRPVKDIPPLMQTPIQGGIPAPGPIPAAVPGAGPGSLTPGGAMQPQLGMPGVGPVPLERGQVQMSDPRAPIPRGPVTPGGLPPRGLLGDAPNDPRGGTLLSVTGEVEPRGYLGPPHQGPPMHHASGHDTRGPSSHEMRGGPLGDPRLLIGEPRGPMIDQRGLPMDGRGGRDSRAMETRAMETEVLETRVMERRGMETCAMETRGMEARGMDARGLEMRGPVPSSRGPMTGGIQGPGPINIGAGGPPQGPRQVPGISGVGNPGAGMQGTGIQGTGMQGAGIQGGGMQGAGIQGVSIQGGGIQGGGIQGASKQGGSQPSSFSPGQSQVTPQDQEKAALIMQVLQLTADQIAMLPPEQRQSILILKEQIQKSTGAS [CSTF2T]”, the melting temperature was determined as 52.6 °C in the series on HeLa Kyoto [1] (cell cycle stage: G1/S) and 51.9 °C with HeLa Kyoto [1] (cell cycle stage: mitosis). Also, the thermal stability score in the series with HeLa Kyoto [2] (setting [5]) is -0.131; with HeLa Kyoto [2] (cell cycle stage: mitosis), 0.0128. The “solubility change mitosis (log2)” value in the series with HeLa Kyoto [3] was determined as 0.114. Moreover, the “solubility in G1/S (log2)” value in the series on HeLa Kyoto [4] was -0.00517.

As to “MSSNCTSTTAVAVAPLSASKTKTKKKHFVCQKVKLFRASEPILSVLMWGVNHTINELSNVPVPVMLMPDDFKAYSKIKVDNHLFNKENLPSRFKFKEYCPMVFRNLRERFGIDDQDYQNSVTRSAPINSDSQGRCGTRFLTTYDRRFVIKTVSSEDVAEMHNILKKYHQFIVECHGNTLLPQFLGMYRLTVDGVETYMVVTRNVFSHRLTVHRKYDLKGSTVAREASDKEKAKDLPTFKDNDFLNEGQKLHVGEESKKNFLEKLKRDVEFLAQLKIMDYSLLVGIHDVDRAEQEEMEVEERAEDEECENDGVGGNLLCSYGTPPDSPGNLLSFPRFFGPGEFDPSVDVYAMKSHESSPKKEVYFMAIIDILTPYDTKKKAAHAAKTVKHGAGAEISTVNPEQYSKRFNEFMSNILT [PIP4K2B]”, the melting temperature with HeLa Kyoto [1] (cell cycle stage: G1/S) was determined as 50.1 °C; in the series with HeLa Kyoto [1] (cell cycle stage: mitosis), 49 °C. Besides, the thermal stability score with HeLa Kyoto [2] (setting [5]) is 0.758; in the series on HeLa Kyoto [2] (cell cycle stage: mitosis) it was -0.395. Further, in the series on HeLa Kyoto [3], the “solubility change mitosis (log2)” value was -0.163. In addition, the “solubility in G1/S (log2)” value with HeLa Kyoto [4] was 0.335.

With “MSSPSPGKRRMDTDVVKLIESKHEVTILGGLNEFVVKFYGPQGTPYEGGVWKVRVDLPDKYPFKSPSIGFMNKIFHPNIDEASGTVCLDVINQTWTALYDLTNIFESFLPQLLAYPNPIDPLNGDAAAMYLHRPEEYKQKIKEYIQKYATEEALKEQEEGTGDSSSESSMSDFSEDEAQDMEL [UBE2H]”, the melting temperature with HeLa Kyoto [1] (cell cycle stage: G1/S) turned out to be 52 °C; in the series on HeLa Kyoto [1] (cell cycle stage: mitosis), 52.4 °C. For the same sequence, the results for the thermal stability score in the series with HeLa Kyoto [2] (setting [5]) and in the series with HeLa Kyoto [2] (cell cycle stage: mitosis) were 0.268 and 0.877, respectively. Further, the “solubility change mitosis (log2)” value in the series with HeLa Kyoto [3] is -0.126. In addition, in the series on HeLa Kyoto [4], the “solubility in G1/S (log2)” value was -0.0237.
